B1: PPP2R2B (parent)
chain: RNTKRDVTLEASRENSKPRAILKP

Variants of: B1
Assay: protein stability index of a GFP-peptide fusion (GPS, HEK-293T) (PSI 1-6); higher = more stable
Conditions: c terminus: a fixed tail appended
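Note: lentivirally expressed fusions sorted by FACS into six bins by GFP to DsRed ratio, PSI derived from sequencing read proportions per bin multiplied by bin number.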

**Q.** For RNTKRDVTLPASRENSKPRAILKP, which protein stability index is on record?
**A.** 4.55

**Q.** Which protein stability index does the source give for RNTKRDVTLTASRENSKPRAILKP here?
**A.** 3.7

**Q.** With RNTKRDVTLIASRENSKPRAILKP as the variant, how does the protein stability index read?
**A.** 4.14

**Q.** For RNTKRDVTLSASRENSKPRAILKP, which protein stability index is on record?
**A.** 4.38

**Q.** Which protein stability index does the source give for RNTKRDVTLFASRENSKPRAILKP here?
**A.** 3.49

**Q.** Which protein stability index does the source give for RNTKRDVTLEASRENSKPEAILKP here?
**A.** 5.04

**Q.** For RNTKRDVTLEASRENSKPLAILKP, which protein stability index is on record?
**A.** 4.7

**Q.** For RNTKRDVTLEASRENSKPTAILKP, which protein stability index is on record?
**A.** 4.52

**Q.** For RNTKRDVTLEASRENSKPKAILKP, which protein stability index is on record?
**A.** 4.7

**Q.** With RNTKRDVTLEASRENSKPWAILKP as the variant, how does the protein stability index read?
**A.** 3.98

**Q.** Which protein stability index does the source give for RNTKRDVTLEASRENSKPRAIEKP here?
**A.** 5.31

**Q.** For RNTKRDVTLEASRENSKPRAIRKP, which protein stability index is on record?
**A.** 4.75

**Q.** With RNTKRDVTLEASRENSKPRAIVKP as the variant, how does the protein stability index read?
**A.** 4.72

**Q.** Which protein stability index does the source give for RNTKRDVTLEASRENSKPRAIYKP here?
**A.** 4.37

**Q.** With RNTKRDVTLEASRENSKPRAIMKP as the variant, how does the protein stability index read?
**A.** 4.33

**Q.** Which protein stability index does the source give for RNTKRDVTLEASRENSKVRAILKP here?
**A.** 4.32

**Q.** Which protein stability index does the source give for RNTKRDVTLEASRENSKGRAILKP here?
**A.** 4.86

**Q.** Which protein stability index does the source give for RNTKRDVTLEASRENSKSRAILKP here?
**A.** 4.72

**Q.** With RNTKRDVTLEASRTNSKPRAILKP as the variant, how does the protein stability index read?
**A.** 4.58

**Q.** Which protein stability index does the source give for RNTKRDVTLEASRMNSKPRAILKP here?
**A.** 3.88

**Q.** With RNTKRDVTLEASRSNSKPRAILKP as the variant, how does the protein stability index read?
**A.** 4.45

**Q.** Which protein stability index does the source give for RNTKRDVTLEASRINSKPRAILKP here?
**A.** 3.72

**Q.** For RNTKRDVTLEASRVNSKPRAILKP, which protein stability index is on record?
**A.** 3.79

**Q.** With RNTKRDVTLEASRCNSKPRAILKP as the variant, how does the protein stability index read?
**A.** 3.9

**Q.** For RNTKRDVTCEASRENSKPRAILKP, which protein stability index is on record?
**A.** 4.78

**Q.** For RNTKRDVTREASRENSKPRAILKP, which protein stability index is on record?
**A.** 4.84

**Q.** With RNTKRDVTTEASRENSKPRAILKP as the variant, how does the protein stability index read?
**A.** 4.96

**Q.** Which protein stability index does the source give for RNTKRDVTWEASRENSKPRAILKP here?
**A.** 4.34

**Q.** With RNTKRDVTPEASRENSKPRAILKP as the variant, how does the protein stability index read?
**A.** 4.4

**Q.** With RNTKRDVTGEASRENSKPRAILKP as the variant, how does the protein stability index read?
**A.** 4.88

**Q.** For RNIKRDVTLEASRENSKPRAILKP, which protein stability index is on record?
**A.** 4.45

**Q.** With RNDKRDVTLEASRENSKPRAILKP as the variant, how does the protein stability index read?
**A.** 4.81

**Q.** With RNTKRDVTLEASREASKPRAILKP as the variant, how does the protein stability index read?
**A.** 4.29

**Q.** For RNTKRDVTLEASREWSKPRAILKP, which protein stability index is on record?
**A.** 3.77

**Q.** For RNTKRDVTLEASREHSKPRAILKP, which protein stability index is on record?
**A.** 3.94

**Q.** Which protein stability index does the source give for RVTKRDVTLEASRENSKPRAILKP here?
**A.** 4.1

**Q.** Which protein stability index does the source give for INTKRDVTLEASRENSKPRAILKP here?
**A.** 4.61

**Q.** Which protein stability index does the source give for ENTKRDVTLEASRENSKPRAILKP here?
**A.** 4.31

**Q.** For RNTRRDVTLEASRENSKPRAILKP, which protein stability index is on record?
**A.** 4.54

**Q.** Which protein stability index does the source give for RNTWRDVTLEASRENSKPRAILKP here?
**A.** 3.39

**Q.** Which protein stability index does the source give for RNTERDVTLEASRENSKPRAILKP here?
**A.** 4.6

**Q.** For RNTNRDVTLEASRENSKPRAILKP, which protein stability index is on record?
**A.** 4.77

**Q.** With RNTKRDDTLEASRENSKPRAILKP as the variant, how does the protein stability index read?
**A.** 4.86

**Q.** With RNTKRDATLEASRENSKPRAILKP as the variant, how does the protein stability index read?
**A.** 4.19

**Q.** With RNTKRDMTLEASRENSKPRAILKP as the variant, how does the protein stability index read?
**A.** 4.81

**Q.** Which protein stability index does the source give for RNTKRDKTLEASRENSKPRAILKP here?
**A.** 4.6

**Q.** Which protein stability index does the source give for RNTKRDQTLEASRENSKPRAILKP here?
**A.** 4.8

**Q.** For RNTKRDHTLEASRENSKPRAILKP, which protein stability index is on record?
**A.** 4.67

**Q.** For RNTKRDVHLEASRENSKPRAILKP, which protein stability index is on record?
**A.** 4.35

**Q.** With RNTKRDVQLEASRENSKPRAILKP as the variant, how does the protein stability index read?
**A.** 4.62

**Q.** Which protein stability index does the source give for RNTKRDVTLEASVENSKPRAILKP here?
**A.** 4.67

**Q.** With RNTKRDVTLEASFENSKPRAILKP as the variant, how does the protein stability index read?
**A.** 3.98

**Q.** For RNTKRDVTLEASAENSKPRAILKP, which protein stability index is on record?
**A.** 4.92

**Q.** Which protein stability index does the source give for RNTKRDVTLEASRENSKPRAELKP here?
**A.** 5.34

**Q.** With RNTKRDVTLEASRENSKPRAPLKP as the variant, how does the protein stability index read?
**A.** 5.15

**Q.** With RNTKRDVTLEASRENSKPRADLKP as the variant, how does the protein stability index read?
**A.** 5.3

**Q.** Which protein stability index does the source give for RNTKRDVTLEASRENSKPRAGLKP here?
**A.** 4.99

**Q.** Which protein stability index does the source give for RNTKRDVTLEASRENSKPRAALKP here?
**A.** 4.8

**Q.** With RNTKRDVTLEASRENSKPRACLKP as the variant, how does the protein stability index read?
**A.** 4.85

**Q.** For RNTKRDVTLEASRENSKPRAFLKP, which protein stability index is on record?
**A.** 4.3

**Q.** With RNTKRQVTLEASRENSKPRAILKP as the variant, how does the protein stability index read?
**A.** 4.46

**Q.** With RNTKRLVTLEASRENSKPRAILKP as the variant, how does the protein stability index read?
**A.** 3.94

**Q.** With RNTKRFVTLEASRENSKPRAILKP as the variant, how does the protein stability index read?
**A.** 3.83

**Q.** With RNTKRGVTLEASRENSKPRAILKP as the variant, how does the protein stability index read?
**A.** 4.44

**Q.** For RNTKRCVTLEASRENSKPRAILKP, which protein stability index is on record?
**A.** 4.29

**Q.** Which protein stability index does the source give for RNTKRYVTLEASRENSKPRAILKP here?
**A.** 3.79

**Q.** Which protein stability index does the source give for RNTKRDVTLEASRENSKPRFILKP here?
**A.** 4.03

**Q.** With RNTKRDVTLEASRENSKPRVILKP as the variant, how does the protein stability index read?
**A.** 4.38

**Q.** With RNTKRDVTLERSRENSKPRAILKP as the variant, how does the protein stability index read?
**A.** 4.58

**Q.** For RNTKRDVTLEASRENSAPRAILKP, which protein stability index is on record?
**A.** 4.66

**Q.** Which protein stability index does the source give for RNTKRDVTLEASRENSGPRAILKP here?
**A.** 4.89

**Q.** For RNTKRDVTLEASRENSKPRAILKN, which protein stability index is on record?
**A.** 4.82

**Q.** For RNTKRDVTLEASRENSKPRAILKL, which protein stability index is on record?
**A.** 4

**Q.** Which protein stability index does the source give for RNTKRDVTLEASRENSKPRAILKW here?
**A.** 3.55

**Q.** With RNTKRDVTLEASRENSKPRAILKC as the variant, how does the protein stability index read?
**A.** 4.44

**Q.** For RNTKRDVTLEASRENSKPRAILKS, which protein stability index is on record?
**A.** 4.49

**Q.** Which protein stability index does the source give for RNTKRDVTLEASRENSKPRAILGP here?
**A.** 4.48

**Q.** For RNTKRDVTLEASRENSKPRAILFP, which protein stability index is on record?
**A.** 3.48

**Q.** For RNTKRDVTLEASRENSKPRAILTP, which protein stability index is on record?
**A.** 4.67

**Q.** With RNTKRDVTLEASRENSKPRAILQP as the variant, how does the protein stability index read?
**A.** 4.89

**Q.** For RNTKRDVTLEASRENCKPRAILKP, which protein stability index is on record?
**A.** 4.23

**Q.** Which protein stability index does the source give for RNTKRDVTLEASRENTKPRAILKP here?
**A.** 4.2

**Q.** With RNTKRDVTLEASRENQKPRAILKP as the variant, how does the protein stability index read?
**A.** 4.61

**Q.** Which protein stability index does the source give for RNTKRDVTLEASRENGKPRAILKP here?
**A.** 4.42

**Q.** Which protein stability index does the source give for RNTKTDVTLEASRENSKPRAILKP here?
**A.** 4.94

**Q.** For RNTKQDVTLEASRENSKPRAILKP, which protein stability index is on record?
**A.** 4.54

**Q.** Which protein stability index does the source give for RNTKCDVTLEASRENSKPRAILKP here?
**A.** 4.43

**Q.** With RNTKNDVTLEASRENSKPRAILKP as the variant, how does the protein stability index read?
**A.** 4.92

**Q.** With RNTKKDVTLEASRENSKPRAILKP as the variant, how does the protein stability index read?
**A.** 4.62

**Q.** With RNTKRDVTLEAERENSKPRAILKP as the variant, how does the protein stability index read?
**A.** 4.95

**Q.** With RNTKRDVTLEAYRENSKPRAILKP as the variant, how does the protein stability index read?
**A.** 4.18

**Q.** For RNTKRDVTLEAMRENSKPRAILKP, which protein stability index is on record?
**A.** 4.12

**Q.** For RNTKRDVTLEARRENSKPRAILKP, which protein stability index is on record?
**A.** 4.41

**Q.** With RNTKRDVTLEACRENSKPRAILKP as the variant, how does the protein stability index read?
**A.** 3.95
